{"source": "patent US20180186871A1", "binders": {"B1": {"name": "YU100-H02 (scFv)", "scFv": "QVQLQQSGGGVVQPGRSLRLSCAASGFTFSSYGMHWVRQAPGKGLEWVAVISYDGSNKYYADSVKGRFTISRDNSKNTLYLQMNSLRAEDTAVYYCARIMGYDYGDYDVVDYWGQGTLVTVSSGSASAPKLEEGEFSEARVQSALTQPRSVSRSPGQSVTISCTGTSSDVGTYNYVSWYQQHPGKAPKLMIYDVSKRPSGVPDRFSGSKSGNTASLTISGLQAEDEADYYCCSYAGFYTWVFGGGTKLTVL"}, "B2": {"name": "YU112-F05 (scFv)", "scFv": "EVQLVQSGGGVVQPGRSLRLSCAASGFTFGSYGMHWVRQAPGKGLEWVAVISYDGSNKYYADSVKGRFTISRDNSKNTLYLQMNSLRAEDTAVYYCAKIGATDPLDYWGQGTLVTVSSGSASAPKLEEGEFSEARVQSALTQPRSVSGSPGQSVTISCTGTSSDVGGYNYVSWYQQHPGKAPKLIIYDVNNRPSGVSNRFSASKSGNTASLTISGLQAEDEADYYCNSYTSGSTWVFGGGTKLTVL"}, "B3": {"name": "YU100-A11 (scFv)", "scFv": "EVQLQQSGGGVVQPGRSLRLSCAASGFTFSSYGMHWVRQAPGKGLEWVAVISYDGSNKYYADSVKGRFTISRDNSKNTLYLQMNSLRAEDTAVYYCAKIGATDPLDYWGQGTLVTVSSGSASAPKLEEGEFSEARVQSALTQPRSVSGSPGQSVTISCTGTSSDVGGYNYVSWYQQHPGKAPKLMIYDVSKRPSGVPDRFSGSKSGNTASLTISGLQAEDEADYYCCSYAGSYTWVFGGGTKLTVL"}, "B4": {"name": "YU100-E07 (scFv)", "scFv": "B3 scFv with E1Q, Q6E, K58R, T69A, N169D, K183E, S190T, P197A, S232R"}}, "note": "Residue numbers refer to the chain shown, from its start."}
{"biological_target": "T1, murine IL-11 (mouse) (UniProt P47873)", "T1 sequence (looked up)": "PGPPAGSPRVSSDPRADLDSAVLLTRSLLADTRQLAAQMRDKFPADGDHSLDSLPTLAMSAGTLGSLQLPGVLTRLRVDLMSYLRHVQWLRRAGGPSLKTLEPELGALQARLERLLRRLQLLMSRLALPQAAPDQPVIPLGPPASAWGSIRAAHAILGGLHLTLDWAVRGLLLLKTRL", "assay": "ELISA binding signal"}
{"binder": "B1", "mIL11 - average signal": 0.188}
{"binder": "B2", "mIL11 - average signal": 0.601}
{"binder": "B3", "mIL11 - average signal": 0.372}
{"binder": "B4", "mIL11 - average signal": 0.247}
